The values below come from patent publication US20220235103A1 (Molecular Partners, published 2022).

What all share (assay): cell-based or functional assay
In assay [1] the target is SARS-CoV-2 spike protein A222V (SARS-CoV-2, UniProt P0DTC2 14-1273).
The target of assay [2] is SARS-CoV-2 spike protein G476S (SARS-CoV-2, UniProt P0DTC2 14-1273).
Assay [3] deals with SARS-CoV-2 spike protein G446V (SARS-CoV-2, UniProt P0DTC2 14-1273).

B1: vS07_23E04 (designed binder)
chain: MRGSHHHHHHGSDLGKKLLQAARAGQLDEVRELLKAGADVNAKDQEGITPLHVAAHQGHLEIVEVLLKAGADVNAKDVWGRTPLHLAAWRGHLEIVEVLLKAGADVNAKDHAGATPLHAAALSGHLEIVEVLLKAGADVNAQDKSGKTPADLAARAGHQDIAEVLQKAA
notes: also called R3c
For the molecule B1, the “VSV Pseudotype Neutralization Assay IC50” value was determined as 19.5 ng/mL in assay [1], 29 ng/mL in assay [2] and 2.3 ng/mL in assay [3].

B2: vS07_12C06 (designed binder)
chain: MRGSHHHHHHGSDLGKKLLQAARAGQLDEVRELLKAGADVNAKDREGKTPLHVAAQEGHLEIVEVLLKAGADVNAKDVWGRTPLHLAAWIGHLEIVEVLLKAGADVNAKDVSGATPLHAAALHGHLEIVEVLLNAGADVNAQDKSGKTPADLAARAGHQDIAEVLQKAA
notes: also called R1b; Rb1
For B2, the “VSV Pseudotype Neutralization Assay IC50” value in assay [1] stood at 4.6 ng/mL; in assay [2] it was 3.7 ng/mL; in assay [3], 1.8 ng/mL.

B3: vS07_29B10 (designed binder)
chain: MRGSHHHHHHGSDLGKKLLQAARAGQLDEVRELLKAGADVNAKDREGITPLHLAAQHGHLEIVEVLLKAGADVNAKDVWGRTPLHLAAWQGHLEIVEVLLKAGADVNAKDLAGATPLHVAALYGHLEIVEVLLKAGADVNAQDKSGKTPADLAARAGHQDIAEVLQKAA
notes: also called R3b
For the molecule B3, the “VSV Pseudotype Neutralization Assay IC50” value in assay [1] amounted to 3.3 ng/mL; in assay [2] it was 2.3 ng/mL; in assay [3], 0.7 ng/mL.
